Test results from patent US20240343803A1 (SHANDONG SIMCERE BIOPHARMACEUTICAL, published 2024).

Experiments:
[1] = target: T1, cynomolgus monkey PVRIG on FlpinCHO-cyno PVRIG cells (cynomolgus monkey, UniProt A0A2K5WVV8 41-322); assay: FACS, FlpinCHO-cyno PVRIG cells; AUC of MFI curve relative to SRF813-hIgG1
T1 construct: whole, on cells
T1 sequence: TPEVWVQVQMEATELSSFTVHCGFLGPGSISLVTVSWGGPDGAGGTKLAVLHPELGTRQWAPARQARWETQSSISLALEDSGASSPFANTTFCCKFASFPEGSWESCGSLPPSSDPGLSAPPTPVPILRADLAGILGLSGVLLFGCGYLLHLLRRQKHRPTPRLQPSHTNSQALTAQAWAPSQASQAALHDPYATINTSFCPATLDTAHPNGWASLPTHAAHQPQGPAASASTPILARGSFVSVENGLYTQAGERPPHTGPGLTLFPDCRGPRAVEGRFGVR
Method: (§1) The Ham's F12 (Gibico, 21127-022) complete medium containing 10% FBS was then added to terminate the digestion and acquire cell suspension. After counting with a cell counter (Beckman Coulter, Vi-CELL), an appropriate amount of cell suspension was centrifuged at 350×g to remove the supernatant, washed twice with PBS, stained with Zombie violet (Biolegend, 423114) and incubated at room temperature for 20 minutes. After incubation, the cells were added with staining buffer (2% FBS+PBS) to stop staining, centrifuged at 350×g to remove the supernatant, washed twice and resuspended with staining buffer to a density of 2×10⁶ cells/mL. The cells were plated into a 96-well plate (50 μL of cell suspension per well) for further use. The antibodies were diluted from the highest concentration of 46 nM (two-fold concentration) with staining buffer by 3.3-fold serial dilution. The diluted antibodies were added to the well containing 50 μL of cell suspension. The plate was placed on a microplate shaker at 400 rpm for 1 minute to fully mix the antibodies and cells, and then incubated at 4° C. for 30 minutes. After the incubation, the cells were washed twice with staining buffer (200 μL per well) and centrifuged at 350×g for 5 minutes to discard the supernatant. The PE goat anti-human IgG Fc antibody (ebioscience, 12-4998-82) was diluted 250 times with staining buffer, added into the washed wells (100 μL per well), mixed well, and stained at 4° C. for 30 minutes. After staining, the cells were washed twice with staining buffer, finally resuspended with 200 μL staining buffer and analyzed by flow cytometry (BD, Canto II). The stronger the signal, the stronger the ability of the antibodies binds to PVRIG. An antibody binding curve was drawn with concentration of antibodies as the abscissa and the corresponding Mean Fluorescence Intensity (MFI) as the ordinate. The AUC value of the curve was calculated by using a Four Parameter Logistic Fit (GraphPadPrism9). The stronger the AUC value, the stronger the ability of the antibodies binds to FlpinCHO-PVRIG and FlpinCHO-cyno PVRIG. […] The binding activity of the antibodies was normalized to the positive control COM701-hIgG1 and SRF813-hIgG1.

[2] = target: T2, human PVRIG on FlpinCHO-PVRIG cells (human, UniProt Q6DKI7 41-326); assay: FACS, FlpinCHO-PVRIG cells; AUC of MFI curve relative to COM701-hIgG1
T2 construct: whole, on cells
T2 sequence (looked up): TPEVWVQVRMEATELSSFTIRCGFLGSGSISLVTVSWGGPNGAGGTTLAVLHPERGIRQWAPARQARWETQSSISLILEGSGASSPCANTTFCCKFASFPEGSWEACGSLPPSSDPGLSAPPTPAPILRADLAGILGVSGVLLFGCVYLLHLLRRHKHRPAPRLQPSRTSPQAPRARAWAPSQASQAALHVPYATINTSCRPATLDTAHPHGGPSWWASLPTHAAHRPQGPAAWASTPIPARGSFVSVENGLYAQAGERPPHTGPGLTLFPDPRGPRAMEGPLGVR
Method: as §1

[3] = target: T3, human PVRIG-his (AcroBiosystems, Cat NO. PVG-H52H4) (human, UniProt Q6DKI7 41-171, limits assumed); assay: ELISA, coated human PVRIG-his; binding ELISA, Table 23
T3 construct: Bought reagent; also called human PVRIG protein
T3 sequence (looked up): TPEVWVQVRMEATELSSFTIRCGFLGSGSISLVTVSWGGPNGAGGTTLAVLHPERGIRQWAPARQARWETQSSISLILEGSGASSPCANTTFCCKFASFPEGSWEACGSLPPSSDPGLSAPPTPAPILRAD
Method: The ELISA plate was pre-coated with 100 μL/well of 0.5 μg/mL human PVRIG-his (AcroBiosystems, Cat NO. PVG-H52H4) or cynomolgus monkey PVRIG (Novoprotein, Cat NO. C09B). […] A HRP substrate, TMB (Thermo, Cat NO. 34029) was added into wells after washing the plate again for color development. After adding a termination solution to terminate the reaction, the absorbance value was read by a microplate reader (MD i3×). An antibody binding curve was drawn with concentration of antibodies as the abscissa and the corresponding OD value as the ordinate. The EC50 value was calculated by using a Four Parameter Logistic Fit (GraphPadPrism9). The smaller the EC50 value, the stronger the ability of the antibodies binds to human or cynomolgus monkey PVRIG. The positive control antibodies are COM701-hIgG1 (Patent No.:US20180244774A1), COM701-hIgG4 (patent No.: US20180244774A1) and SRF813-hIgG1 (Patent No.:US20200040081A1); and the negative control antibodies are anti-HA HcAb-hIgG1 (Chengdu NB Biolab, Cat NO. NBR022), anti-CD38 HcAb-hIgG1 (in-house) and anti-Fluorescein-hIgG1 (in house).

[4] = target: T4, cynomolgus monkey PVRIG (Novoprotein, Cat NO. C09B) (cynomolgus monkey, UniProt A0A2K5WVV8 41-171); assay: ELISA, coated cynomolgus monkey PVRIG
T4 construct: Bought reagent; also called cynomolgus monkey PVRIG protein
T4 sequence: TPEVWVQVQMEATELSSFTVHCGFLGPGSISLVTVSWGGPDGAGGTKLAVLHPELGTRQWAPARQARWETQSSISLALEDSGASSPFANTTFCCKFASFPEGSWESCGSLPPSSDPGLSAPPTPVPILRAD

[5] = target: T1, cynomolgus monkey PVRIG on …; assay: FACS, FlpinCHO-cyno PVRIG cells; AUC of MFI curve relative to COM701-hIgG1
Method: as §1

[6] = target: T2, human PVRIG on FlpinCHO-PVRIG cells; assay: FACS, FlpinCHO-PVRIG cells; AUC of MFI curve relative to SRF813-hIgG1
Method: as §1

B1: PVRIG-A11 (Fc fusion)
chain: QLQLVESGGGLVQPGGSLRLSCAASGFTDDYYAIGWFRQAPGKEREGVSCISGSGGSTNYEDSVKGRFAISRDNAKNMVYLQMNDLKPEDTAVYYCAADPFWSAPCTGHNDRYFDVWGQGTLVTVSS
notes: Alpaca VHH joined to human IgG1 Fc (VHH-hinge-CH2-CH3); not shown: human IgG1 hinge-CH2-CH3
% AUC to SRF813-hIgG1 [1]: 48.6%
% AUC to COM701-hIgG1 [2]: 117%
EC50 [3]: 0.121 nM
EC50 [4]: 0.0289 nM
% AUC to COM701-hIgG1 [5]: 41.3%
% AUC to SRF813-hIgG1 [6]: 143%
